Source: article PMC2211785 (The Journal of Experimental Medicine, 2004)

Biological target: JNK-2 (human (endogenous in HUVEC), UniProt P45984 1-424)
Assay: co-IP

fold increase of association by PEDF combined with VEGF or bFGF: > 20 fold
B1: NFATc2 (natural protein)
chain: MNAPERQPQPDGGDAPGHEPGGSPQDELDFSILFDYEYLNPNEEEPNAHKVASPPSGPAYPDDVLDYGLKPYSPLASLSGEPPGRFGEPDRVGPQKFLSAAKPAGASGLSPRIEITPSHELIQAVGPLRMRDAGLLVEQPPLAGVAASPRFTLPVPGFEGYREPLCLSPASSGSSASFISDTFSPYTSPCVSPNNGGPDDLCPQFQNIPAHYSPRTSPIMSPRTSLAEDSCLGRHSPVPRPASRSSSPGAKRRHSCAEALVALPPGASPQRSRSPSPQPSSHVAPQDHGSPAGYPPVAGSAVIMDALNSLATDSPCGIPPKMWKTSPDPSPVSAAPSKAGLPRHIYPAVEFLGPCEQGERRNSAPESILLVPPTWPKPLVPAIPICSIPVTASLPPLEWPLSSQSGSYELRIEVQPKPHHRAHYETEGSRGAVKAPTGGHPVVQLHGYMENKPLGLQIFIGTADERILKPHAFYQVHRITGKTVTTTSYEKIVGNTKVLEIPLEPKNNMRATIDCAGILKLRNADIELRKGETDIGRKNTRVRLVFRVHIPESSGRIVSLQTASNPIECSQRSAHELPMVERQDTDSCLVYGGQQMILTGQNFTSESKVVFTEKTTDGQQIWEMEATVDKDKSQPNMLFVEIPEYRNKHIRTPVKVNFYVINGKRKRSQPQHFTYHPVPAIKTEPTDEYDPTLICSPTHGGLGSQPYYPQHPMVAESPSCLVATMAPCQQFRTGLSSPDARYQQQNPAAVLYQRSKSLSPSLLGYQQPALMAAPLSLADAHRSVLVHAGSQGQSSALLHPSPTNQQASPVIHYSPTNQQLRCGSHQEFQHIMYCENFAPGTTRPGPPPVSQGQRLSPGSYPTVIQQQNATSQRAAKNGPPVSDQKEVLPAGVTIKQEQNLDQTYLDDVNEIIRKEFSGPPARNQT
